Laboratory results published in patent publication US20250136687A1 (SHANDONG SIMCERE BIOPHARMACEUTICAL, published 2025).
Where two headings read alike, the source gives them in different places. Values belong to the binder of their own block, whether it stands above or below them.

Key:
[1] = biological target: T1, human CD3 on the cell surface (Jurkat cells, expanded human T cells, Jurkat-Lucia NFAT cells, human PBMC) (human, UniProt P07766 23-207; P04234 22-171; P09693 23-182); experiment: FACS, Jurkat cells
T1 construct: whole, on cells; Endogenous CD3 within the TCR-CD3 complex on cells (also zeta chains and TCR); the cell type is named under assay
Description: (§1) The binding of the chimeric antibodies to CD3 on the cell surface was analyzed by detecting the binding of the antibodies to Jurkat cells and human T cells. Suspension cells Jurkat cells were scale-up cultured in T-75 cell culture flasks to the logarithmic growth phase, the supernatant of the medium was discarded by centrifugation, and the cell pellet was washed 2 times with PBS for later use. The expanded human T cells were washed 2 times with PBS for later use. After counting the cells in the previous step, the cell pellet was resuspended with [PBS+2% (w/w) BSA] blocking solution to 4×10⁶ cells/ml, and added to a 96-well FACS reaction plate at 50 μl/well, and then the chimeric antibody to be tested was added at 50 μl/well, and incubated at 4° C. for 1 h. The cells were centrifuged and washed 3 times with a PBS buffer. […] The cells were centrifuged and washed 5 times with PBS, and FACS (FACS Canto™, purchased from BD Company) was used for detection and result analysis. Data analysis was performed by software (CellQuest) to obtain the mean fluorescence […] (MFI) of the cells. And then software (GraphPad Prism8) was used for analysis, data fitting, and EC50 value calculation. The same method was used to simultaneously detect the binding of the chimeric antibodies to endogenous CD3 negative cells MOLT4 cells.

[2] = biological target: T1, human CD3 on the cell surface (Jurkat …); experiment: FACS, expanded human T cells
Description: as §1

[3] = biological target: T1, human CD3 on the cell surface (Jurkat …); experiment: cell-based or functional assay
[4] = biological target: T2, cynomolgus monkey CD3 on the surface of expanded monkey T cells (cynomolgus monkey, UniProt Q95LI5 22-198; Q95LI8 22-171; Q95LI7 23-181); experiment: FACS, expanded monkey T cells
T2 construct: whole, on cells; Endogenous CD3 within the TCR-CD3 complex on T cells expanded from cynomolgus monkey PBMC
Description: as §1, with “MOLT4 cells. […]” for “MOLT4 cells.”

[5] = biological target: T3, recombinant human CD3ε-ECD His protein (human, UniProt P07766 23-126); experiment: SPR (Biacore), antibody captured on Protein A chip
T3 construct: extracellular domain; also called human CD3ε-His; CD3ε antigen protein; not shown: His tag
Description: Sample buffer and running buffer were HBS-EP+(10 mM HEPES, 150 mM NaCl, 3 mM EDTA, 0.05% surfactant P20) (GE Healthcare; BR-1006-69). The flow-through cell was set to 25° C. The sample block was set to 16° C. Both were pretreated with the running buffer. In each cycle, the antibody to be detected was first captured with a Protein A chip, and then a single concentration of CD3ε antigen protein (purchased from Sino Biological, Inc. (China), catalog number: 10977-H08H) was injected. The binding and dissociation processes of the antibody and the antigen protein were recorded, and finally a glycine solution (pH 1.5, GE Healthcare; BR-1003-54) was used to complete chip regeneration. The binding was measured by injecting different concentrations of recombinant human CD3ε-ECD His proteins in a solution for 240 s with a flow rate of 30 μL/min. The concentration started from 200 nM (see the detailed results for the actual concentration in the test) and was diluted at 1:1, making a total of 5 concentrations. The dissociation phase was monitored for up to 600 s and was triggered by switching from sample solution to running buffer. The surface was regenerated by washing with a 10 mM glycine solution (pH 1.5) for 30 s at a flow rate of 30 μL/min. Bulk refractive index difference was corrected by subtracting the response obtained from the goat anti-human Fc surface. Blank injection was also subtracted (=double reference). For calculation of apparent KD and other kinetic parameters, Langmuir 1:1 model was used.

[6] = biological target: T1, human CD3 on the cell surface (Jurkat …); experiment: FACS, Jurkat cells; remark: listed apart in the source
Description: as §1

[7] = biological target: T2, cynomolgus monkey CD3 on the surface of …; experiment: FACS, expanded monkey T cells; remark: listed apart in the source
[8] = biological target: T1, human CD3 on the cell surface (Jurkat …); experiment: FACS, Jurkat cells; remark: listed apart in the source
Description: Suspension cells Jurkat cells (purchased from Cell bank of Chinese Academy of Sciences) were scale-up cultured in T-175 cell culture flasks to the logarithmic growth phase, the supernatant of the medium was discarded by centrifugation, and the cell pellet was washed 2 times with PBS. After counting the cells in the previous step, the cell pellet was resuspended with [PBS+2% (w/v) FBS] blocking solution to 4×10⁶ cells/ml, and added to a 96-well FACS reaction plate at 50 μl/well, the supernatant was removed by centrifugation, detection antibodies (initial concentration of […], gradient dilution at 1:5) and an IgG negative control were added at 100 μl/well, the cells were uniformly mixed, and incubated on ice for 1 h. The cells were centrifuged and washed 3 times with a PBS buffer. […] The cells were centrifuged and washed 5 times with a PBS buffer, and FACS (FACS Canto II, purchased from BD Company) was used for detection and result analysis. Data analysis was performed by software (CellQuest) to obtain the mean fluorescence intensity (MFI) of the cells. And then software (GraphPad Prism8) was used for analysis, data fitting, and EC50 value calculation.

[9] = biological target: T1, human CD3 on the cell surface (Jurkat …); experiment: FACS, expanded human T cells; remark: listed apart in the source
Description: as §1

[10] = biological target: T1, human CD3 on the cell surface (Jurkat …); experiment: FACS, expanded human T cells; remark: listed apart in the source
[11] = biological target: T2, cynomolgus monkey CD3 on the surface of …; experiment: FACS, expanded monkey T cells; remark: listed apart in the source
Description: as §1
FACS detection and data analysis were performed on the cryopreserved monkey T cells of Example 2.4 according to the method in Example 5.1.

T1 sequence (P07766 23-207, chain 1 of 3): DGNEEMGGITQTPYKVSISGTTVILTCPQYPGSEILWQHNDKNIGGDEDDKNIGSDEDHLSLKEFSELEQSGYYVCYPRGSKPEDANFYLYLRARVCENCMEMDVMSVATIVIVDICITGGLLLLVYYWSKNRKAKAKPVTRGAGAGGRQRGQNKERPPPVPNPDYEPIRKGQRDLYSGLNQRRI
T1 sequence (P04234 22-171, chain 2 of 3): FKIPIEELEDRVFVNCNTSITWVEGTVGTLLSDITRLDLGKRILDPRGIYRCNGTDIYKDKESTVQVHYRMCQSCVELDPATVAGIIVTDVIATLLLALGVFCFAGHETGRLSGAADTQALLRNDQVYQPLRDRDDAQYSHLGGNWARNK
T1 sequence (P09693 23-182, chain 3 of 3): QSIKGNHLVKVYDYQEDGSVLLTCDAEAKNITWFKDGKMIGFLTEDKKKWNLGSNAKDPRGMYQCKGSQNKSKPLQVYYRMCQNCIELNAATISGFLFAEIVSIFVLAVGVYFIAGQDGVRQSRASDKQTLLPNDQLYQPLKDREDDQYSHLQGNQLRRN
T2 sequence (Q95LI5 22-198, chain 1 of 3): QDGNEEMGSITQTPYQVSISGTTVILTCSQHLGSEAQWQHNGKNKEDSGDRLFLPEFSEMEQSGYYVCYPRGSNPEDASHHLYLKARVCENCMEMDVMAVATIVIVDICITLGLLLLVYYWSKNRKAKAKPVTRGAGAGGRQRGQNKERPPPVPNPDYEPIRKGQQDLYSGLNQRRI
T2 sequence (Q95LI8 22-171, chain 2 of 3): as the sequence (P04234 22-171, chain 2 of 3) above, with I5V, N15K, I20V, S32T, D33N, I34N, T64A, S74N, V83L, H141R counted along it
T2 sequence (Q95LI7 23-181, chain 3 of 3): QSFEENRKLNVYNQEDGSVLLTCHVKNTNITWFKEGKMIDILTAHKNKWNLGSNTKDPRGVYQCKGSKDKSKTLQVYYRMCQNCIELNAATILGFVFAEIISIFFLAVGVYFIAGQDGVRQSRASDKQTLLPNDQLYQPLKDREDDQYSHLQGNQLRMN
T3 sequence (P07766 23-126): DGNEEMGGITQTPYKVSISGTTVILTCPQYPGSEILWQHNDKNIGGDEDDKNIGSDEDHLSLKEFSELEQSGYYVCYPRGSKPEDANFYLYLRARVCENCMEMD

EC50 [1]: 3.37 nM
MFI_Max [1]: 2800 MFI
EC50 [2]: 4.62 nM
MFI_Max [2]: 3800 MFI
EC50 (nM), luciferase reporter, Jurkat-Lucia NFAT cells [3]: 11.8 nM
Maximum response value (RLU) [3]: 8570 RLU
EC50 [4]: 2.74 nM
Kd [5]: 0.959 nM
koff [5]: 0.000261 s⁻¹
kon [5]: 272000 M⁻¹ s⁻¹
B1: 7-35.6 human-murine chimeric antibody (antibody, human IgG1, lambda, V domains shown)
VH: EVQLVESGGGLVQPKGSLKLSCAASGFTFNTYAMNWVRQAPGKGLEWVGRIRSKINNYATYYGDSVKDRFTISRDDSQSMFYLQMNNLKTEDTAMYYCVIHENYGSISWFAYWGQGTLVTVSA
VL: QAVVTQESTLTTSPGETVTLTCRSSTGAVTTSNYANWVQEKPDHLFTGLIGGTNNRAPGVPARFSGSLIGDKAALTITGAQTEDEAIYFCALWYSNHWVFGGGTKLTVLG
notes: Human IgG1 chimera

EC50 [6]: 0.13 nM
MFI_Max [6]: 7020 MFI
EC50 [7]: 0.49 nM
EC50 [8]: 0.45 nM
EC50 [9]: 0.43 nM
MFI_Max [9]: 43100 MFI
EC50 [10]: 2.54 nM
EC50 [11]: 0.27 nM
MFI_Max [11]: 64700 MFI
B2: SP34-hIgG1 (antibody)
heavy: not shown
light: QAVVTQESALTTSPGETVTLTCRSSTGAVTTSNYANWVQEKPDHLFTGLIGGTNKRAPGVPARFSGSLIGDKAALTITGAQTEDEAIYFCALWYSNLWVFGGGTKLTVLRTVAAPSVFIFPPSDEQLKSGTASVVCLLNNFYPREAKVQWKVDNALQSGNSQESVTEQDSKDSTYSLSSTLTLSKADYEKHKVYACEVTHQGLSSPVTKSFNRGEC
notes: Positive control
